Measured values taken from the RNAGym collection of RNA variant scans (doi:10.1073/pnas.2313332121).

B1: TPR t1 (parent)
chain: GACCAAUCUGCCCUCAGAGCUCGAGAACAUCUUCGGAUGCAGAGGAGGCAGGCUUCGGUGGCGCGAUAGCGCCAACGUCCUCAACCUCCAAUGCAUCCCACCACAUGAUGAUGCCUGAAGAGCCUUGGUUUUUUG

Variants of: B1
Test: polymerase ribozyme fitness, log enrichment relative to wild type (log ratio); higher = more active; in vitro selection for triplet polymerase activity
How it was run: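 For each subunit of a heterodimeric triplet polymerase ribozyme, a mutant library was built by PCR and transcribed, then taken through a single in vitro selection round in triplicate. Selection involved annealing to a biotinylated primer, the partner subunit and triplets, incubation frozen at −7 °C, gel excision of extended constructs, capture on streptavidin beads and RT-PCR. Genotypes were retained after Illumina sequencing of inputs and outputs only with ≥10 input reads and ≥1 read in each output. Fitness is defined as the logarithm of a genotype's enrichment relative to wild-type enrichment, using inverse-variance-weighted averages across replicates, with the logarithm taken to base 2.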

Variant	polymerase ribozyme fitness (log ratio)
GACCAAUGUGCCCUUAGAGCUCGAGAACAUCUUCGGAUGCAGAGGAGGCAGGCUUCGGUGGCGCGAUAGCGCCAACGUCCUCAACCUCCAAUGCAUCCCACCACAUGAUGAUGCCUGAAGAGCCUUGGUUUUUUG [C8G C15U]	-1.19
GACCAAUCCGCCCUCAGAGCUCGAGAACAUCUUCGGAUGCAGAGGACGCAGGCUUCGGUGGCGCGAUAGCUCCAACGUCCUCAACCUCCAAUGCAUCCCACCACAUGAUGAUGCCUGAAGAGCCUUGGUUUCUUG [U9C G47C G71U U132C]	-2.26
GAACAAUCUGCCCUCAGAGCUCGAGAACAUCUUCGGAUGCAGAGGAGGCAGGCUUCGGUGGCGCGAUAGCGCCAACGUCCUCAACCUCCAAUGCAUCCCACCACAUGAUGAUGCCUGAAGAGUCUUGGUUUUUUG [C3A C123U]	-1.48
GACCAAUCUGCCCUCAGAGCUCGAGAAUAUCUUCGGAUGCAGAGGAGGCAGUCUUCGGUGGCGCGAUAGCGCCAACGUCCUCAACCUCCAAUGCAUCCCAUCACAUGAUGAUGCCUGAAGAGCCUUGGUUUUUUG [C28U G52U C101U]	-4.04
GACCAAUCUUCCCUCAGAGCUCGAGAACAUCUUCGGAUGCAGAGGAGGCAGGCUUCGGUGGCGCGAUAGCACCAACGUCCUCAACCUCCAAUGCAUCCCACCACAUGAUGAUGCCUGAAGAGCCUUGGUUUUUUG [G10U G71A]	-0.104
GACCAAUAUGCCCUCAGAGCUCGAGAACAUCUUCGGAUGCAGAGGAGGCAGGAUUCGGUGGCGCGAUAUCGCCAACGUCCUCAACCUCCAAUGCAUCCCACCACAUGAUGAUGCCUGAGGAGCCUUGGUUAUUGG [C8A C53A G69U A119G U131A U134G]	1.54
GACCAAUCUGCCCUCAGAGCUCGAGAACAUCUUCGGAUGCAGAGGAGGCAGGCUUCGGUGGGGCGAUAGCGCCAACGUCCUCAACCUCCGAUGCAUUCCACCACAUGAUGCUGCCUGAAGAGCCUUGGUUUUUUG [C62G A90G C97U A111C]	-1.19
GACUAAUCUGCCCUCAGAGCUCGAGAACAUCUUCGGAUGCAGAGGAGGCAGGCUUCGGUGGCGCGAUAGCACCAACGUCCUCAACCACCAAUGCAUUCCACCACAUGAUGAUGCCUGAAGAGCCUUGGUUUUUUG [C4U G71A U87A C97U]	-1.86
GACCAAUCUGCCCUCAGAGCUCGAGAACAUCUUCGGAUGCAGAGGAGAGAUGCUUCGGUGGCGCGAUAGCGCCAACGUCCUCAACCUCCAAUGAAUCCCACCACAUGAUGUUGCCUGAAGAGCCUUGGUUUUUUG [G48A C49G G51U C94A A111U]	-6.59
GACCAAUCUGCCCUCAGAGCUCGAGAACAUCUUCGGAUGCAGAGGAGGCAGGCUUCGGUGGCGCGAUAACGCCAACGUCCUCAACCUCCAAUGCAUCCCACCACAUGAUGAUCCCUGAAGAGCCUUGGUUUUUUG [G69A G113C]	-3.4
GACCAAUCUGCCCGCAGAGCUCGAGAACAUCUUCGGAUGCAGAGGAGGCAGGCUUCGGUGGCGCGAUAGCGACAACGUCCUCAACCUCCAAUGCAUCCCACCACAGGAUGAUGCCUGAAGAGCCUUGGUUUUUUG [U14G C72A U106G]	-3.74
GACCAAUCAGCCCUCAGAGCUCGAGAACAUCUUCGGAUGCAGAGGAGGCAGGCUUCGGUGGCGCGAUAGCGCCAACGUCCUCAACCUCCAAUGCAUCCCACCACAUGAUGAUGUCUGAAGAGCCUUGGUUUUUUG [U9A C114U]	-0.999
GACCAAUCUGCCCUCAGAGCUCGAGAACCUCUUCGGAUGCAGAGGAGGCAGGCUCCGGUGGCGCGAUAGCGCCAACGUCCUCAACCUCCAAUGCAUCCCACCACAUGAUGAUGCAUGAAGAGCCUUGGUUUUAUG [A29C U55C C115A U133A]	-2.81
GACCAAUCUGCCCUCAGAGCUCGAGAACAUCUUCGGAUGCAGAGGAGGCAGGCUUCGGUGGCGCAAUGGCGCCAACGUCCUCAACCUCCAAUGCAUCCCACCACAUGAUGAUGCCUGAAGUGGCUUGGUUUUUUG [G65A A68G A121U C123G]	-5.3
GACCAAUCUGCCCUCAGAGCUCGAGAACAUCUUCGGAUGUAGAGGAGGCAGGCUUCGGUGGCGCGAUAGCGCCAACGUCCUCAACCUCCAAUGCAUCCCACCACAUGAUGAUUCCUGAAGAGCCUUGGCUUUUUG [C40U G113U U129C]	-3.58
GACCAAUCUGUCCUCAGAGCUCGAGAACAUCUUCGGAUGCAGAGGAGGCAGGCUUCGGUGGCGCGAUAGCGCCAACGUCCUCAACCACCAAUGCAUCCCACCACAUGAUGAUGCCUGAAGAGCCUUGGUUUUUUG [C11U U87A]	0.703
GACCAAUCUGCCCUCAGAGUUCGAGAACAUCUUCGGAUGCAGAGAAGGCAGGGUUCGGUGGCGCGAUAGCGCCAACGUCCUCAACCUCCAAUGCAUCCCACCACAUGAUGAUGCCUGAAGAGCCUUGGUUUUUUG [C20U G45A C53G]	-1.22
GACCAAUCUGCCCUCAGAGCUCGAGAACAUCUUCGGAUGCAGAGGAGGCAGGCUUAGGUGGCGCGAUAGCGCCAACGUCCUCAACCUCCAAUGCAUCCCACCACAUGAUGUUGCCUGAAGAGCCUUGGUUUUUUG [C56A A111U]	-3.34
GACCAAUCUGCCCUCAGAGCUCGAGAACAUCUUCGUAUGCAGAGGAGGCAGGCUUCGGUGGCGCGAUAGCGCCAACGUCCUCAACCUCAAAUGCAUCCCACCACAUGAUGAUGCCUGAAGAGCCUUGGUUUUUUG [G36U C89A]	-2.46
GACCAAUCUGCCCUCAGAGCUCGAGAACAUCUUCGGAUUCAGAGGAGGCAGGCUUCGGUGGCGUGAUAGCGCCAACGUCCUCACCCUCCAAUGCAUCCCACCACAUGAUGAUGCCUGAAGAGCCUUGGUUUUUUG [G39U C64U A84C]	-0.386
GACCAAUCUGCCCUCAGAGCUCAAGAACAUCUUCGGAAGCAGAGGAGGCAGGCUUCGCUGGCGCGAUAGCGCCAACGUCCUCAACCUCCAAUGCAUCCCACCACAUGAUGAUGCCUGAAGCGCAUUGGUUUUUUG [G23A U38A G58C A121C C124A]	-6.22
